Assay results: paper PMC6256345 (2018)
Non-standard residues stand in square brackets, D forms with d. *: point of attachment. Pyrrolidinyl(2S-CHPh2) = c1ccc(C(c2ccccc2)[C@@H]2CCCN2*)cc1; pS = N[C@@H](COP(=O)(O)O)C(=O)O

What was measured:
[1] = target: T1, modified Tau peptide 3.2c pS214 epitope (Homo sapiens, UniProt P10636, phosphoS214, N-acetyl, C-terminal L-Ala-(S)-2-benzhydrylpyrrolidine); assay: FP competition
[2] = target: T2, modified Tau peptide 3.2d pS214 epitope (Homo sapiens, UniProt P10636, phosphoS214, N-acetyl, C-terminal D-Ala-(S)-2-benzhydrylpyrrolidine); assay: FP competition
[3] = target: T3, modified Tau peptide 3.2a pS214 epitope (Homo sapiens, UniProt P10636, phosphoS214, N-acetyl, C-terminal L-Thr-(S)-2-benzhydrylpyrrolidine); assay: FP competition
[4] = target: T4, modified Tau peptide 3.2e pS214 epitope (Homo sapiens, UniProt P10636, SMILES …); assay: FP competition
T4 chain: Ac-SRTP[pS]LPV-{Pyrrolidinyl(2S-CHPh2)}

[5] = target: T5, modified Tau peptide 3.2b pS214 epitope (Homo sapiens, UniProt P10636, phosphoS214, N-acetyl, C-terminal Gly-(S)-2-benzhydrylpyrrolidine); assay: FP competition
[6] = target: T6, modified Tau peptide 3.2f pS214 epitope (Homo sapiens, UniProt P10636, SMILES …); assay: FP competition
T6 chain: Ac-SRTP[pS]LP[dV]-{Pyrrolidinyl(2S-CHPh2)}

[7] = target: T7, modified Tau peptide 4.2d-II pS214 epitope (Homo sapiens, UniProt P10636, also: regioisomer, substituent position not given here); assay: ITC
T7 chain: Ac-SRTP[pS]LPG-{(methoxyethoxy)‑substituted benzhydrylpyrrolidine}

[8] = target: T1, modified Tau peptide 3.2c pS214 epitope; assay: ITC
[9] = target: T2, modified Tau peptide 3.2d pS214 epitope; assay: ITC
[10] = target: T8, modified Tau peptide 4.2f-I pS214 epitope (Homo sapiens, UniProt P10636, also: substituent position not given here); assay: ITC
T8 chain: Ac-SRTP[pS]LPG-{methoxy‑substituted benzhydrylpyrrolidine}

[11] = target: T3, modified Tau peptide 3.2a pS214 epitope; assay: ITC
[12] = target: T5, modified Tau peptide 3.2b pS214 epitope; assay: ITC
[13] = target: T6, modified Tau peptide 3.2f pS214 epitope; assay: ITC

B1: 14-3-3ζ (protein)
chain: MDKNELVQKAKLAEQAERYDDMAACMKSVTEQGAELSNEERNLLSVAYKNVVGARRSSWRVVSSIEQKTEGAEKKQQMAREYREKIETELRDICNDVLSLLEKFLIPNASQAESKVFYLKMKGDYYRYLAEVAAGDDKKGIVDQSQQAYQEAFEISKKEMQPTHPIRLGLALNFSVFYYEILNSPEKACSLAKTAFDEAIAELDTLSEESYKDSTLIMQLLRDNLTLWTSDTQGDEAEAGEGGEN
[1]
  IC50: 5.3 µM
[2]
  IC50: 6.2 µM
[3]
  IC50: 8.1 µM
[4]
  IC50: 6.2 µM
[5]
  IC50: 5.9 µM
[6]
  IC50: 7.6 µM
[7]
  Kd: 20.6 µM
[8]
  Kd: 3.3 µM
[9]
  Kd: 3 µM
[10]
  Kd: 4.7 µM
[11]
  Kd: 5.4 µM
[12]
  Kd: 5.6 µM
[13]
  Kd: 3.4 µM
